# B1: CHA.7.534 (antibody, V domains shown)
# VH: EVQLQQSGAELVKPGASVRLSCTASGFSIRDTYIHWVKQRPEQGLDWIGKIDPANGKSEYDPKFQGRATMTTDTSSNTAYLQLSSLTSEDTAVYYCTRYGYYPYFDVWGAGTTVTVFS
# VL: SIVMTQTPKFLLVSAGDRVAITCKASQSVRHDVVWYQQKPGQSPKLLIYYASSRYTGVPDRFTGSGYGTDFTFTISTVQAEDLALYFCLQDFSSPWTFGGGTKLEIK
# B2: CHA.7.526 (antibody, V domains shown)
# VH: QVQLKESGPGLVAPSQSLSITCTVSGFSLTAYNINWVRQPPGKGLEWLGMIWGDGNTDYNSPLKSRLTISKDNSKSQVFLKMDSLQTDDTARYYCARDLKVRRDSPYTMDYWGQGTSVTVSS
# VL: NIMMTQSPSSLAVSAGEKVTMSCKSSQSVLYSSNQKNYLAWYQQKPGQSPKLLIYWASNRESGVPDRFTGSGSGTDFTLTISSVQAEDLAVYYCHQYLSSYTFGGGTKLEIK
# B3: CHA.7.535 (antibody, V domains shown)
# VH: EVQLQQSGPELVKPGASVKISCKTSGYTFTKNTMHWVRQSHGKSLEWIGGINPNSGGASFNQKFMGKATLTVDKSSSTAYMELRSLTSEDSAVYYCARDGYDGDWFFDVWGAGTTVTVSS
# VL: DIQMNQSPFSLSASLGDTVTITCHASQNIYVWLSWYQQKPGNIPKLLIYKASDLHTGVPSRFSGSGSGTDFTLNISSLQPEDIATYYCQQGQSYPRTFGGGTKLEIK
# B4: CHA.7.502 (antibody, V domains shown)
# VH: DVQLVESGGDLVQPGGSRKLSCTASGFTFSNFGMHWVRQAPEKGLEWVAYISSGSSTIYYADTVKGRFTISRDNPENTLFLQMTSLRSEDTAMYYCTRLDYYTNSYSMDHWGQGTSVTVSS
# VL: QIVLTQSPALMSASPGEKVTLTCSASSSLPYIYWYQQKPGSSPKPWIYLTSNLASGVPARFSGSRSGTSYSLTISSVEAEDAATYYCQQWSSNPFTFGSGTKLEIK
# B5: CHA.7.503 (antibody, V domains shown)
# VH: QVQLQQSGAELAKPGASVKMSCKASGYTFTSNWMHWVKQRPGQGLEWIGYINPSNGYTECNQKFRDKATLSADKSSSTAYMQLNSLTSADSAVYYCALMISAWLPYWGQGTLVTVSA
# VL: DIVLTQSPASLAISLGQRATISCRASQSVSASSYSYVHWYQQKPGQPPKLLIKYASSLESGVPARFSGSGSGTDFTLNIHPVEEEDTATYYCLHTWEIPYTFGGGTKLEIK
# B6: CHA.7.508 (antibody, V domains shown)
# VH: EVQLQQSGPDLVKPGASMKISCKASGYTFIDYNIHWVKQSQGKSLDWIGYIYPYNGGTGYNQKFKNKATLTVDSSSSTAYMEVRSLTFEDSAVYFCAREADYYGNRGQFDYWGQGTLVTVSA
# VL: DIQMTQSPASLSVSVGETVTITCRASENIFSNLAWYQQKQGKSPQLLVYGEANLADGVPSRFSGSGSGTQYSLKINSLQSEDFGNYYCQHFWGTPYTFGGGTTLEIK
# B7: CPA.9.059 (Fab, V domains shown)
# VH: EVQLVETGGGLIQPGGSLRLSCAASGFTVSSNYMSWVRQAPGKGLEWVSVIYSGGSTYYADSVKGRFTISRDNSKNTLYLQMNSLRAEDTAVYYCARGARYSYGQYPYWGQGTLVTVSS
# VL: DIQLTQSPSFLSASVGDRVTITCRASHDISSLFSWYQQKPGKAPKLLIYAASTLQTGVPSRFSGSASGTEFTLTISSLQPEDFATYYCLQLDSFPTWTFGQGTKVEIK
# notes: phage fab, campaign 2; fab form of CPA.9.059 hIgG4 (m73); also called CPA.9.059 (fab)
# B8: CPA.9.057 (Fab, V domains shown)
# VH: QVQLQESGPGLVKPSETLSLTCTVSGGSISSSSYYWGWIRQPPGKGLEWIGSIYYSGSTYYNPSLKSRVTISVDTSKNQFSLKLSSVTAADTAVYYCARQGAAAGNPFDIWGQGTMVTVSS
# VL: QSVLTQPPSVSGTPGQRVTISCSGSSSNIGSNFVYWHQQLTGTAPKLLIYRNTQRPSGVPDRFSGSKSGTSASLAIGGLRSEDEADYYCATWDDSLSAWVFGGGTKLTVL
# notes: phage fab, campaign 2; fab form of CPA.9.057-H4; also called CPA.9.057 (fab)
# B9: CPA.9.018 (Fab, V domains shown)
# VH: QVQLVESGGGLVQPGGSLRLSCAASGFTFSSYGMHWVRQAPGKGLEWVAFIRYDGSNKYYADSVKGRFTISRDNSKNTLYLQMNSLRAEDTAVYYCAKEMLVQDYYYMDVWGQGTTVTVSS
# VL: DVVMTQSPLSLPVSPGEPASISCRSSQNLLHRNGINYLNWYLQKPGQSPQLLIYWGSNRASGVPDRFSGSGSGTDFTLKISRVEAEDVGVYYCMQGLQIPPTFGQGTKVDIK
# notes: phage fab, campaign 1; fab form of CPA.9.018-H4; also called CPA.9.018 (fab)
# B10: CHA.7.506 (antibody, V domains shown)
# VH: QVQLQQSGAELTRPGASVNLSCKASGYTFTSYWMQWVKQRPGQGLEWIGAIYPGDGDTRFNQKFKGKATLTADESSSTAYMQLSSLASEDSAVYYCATYYRYDDYWGQGTTLTVSS
# VL: QIVLTQSPAIMSASPGEKVTMTCSASSSVSYMHWYQQKSGTSPKRWIYDTSKLASGVPTRFSGSGSGTSYSLTISSMEAEDAATYYCQQWSSNPYTFGGGTKLEIK
# Target: T1, human PVRIG on cells (human, UniProt Q6DKI7 1-326)
# T1 construct: whole, on cells; over-expressed on HEK cells or endogenous on Jurkat and CD8 T cells; also called hPVRIG; HEK hPVRIG cells
# T1 sequence (looked up): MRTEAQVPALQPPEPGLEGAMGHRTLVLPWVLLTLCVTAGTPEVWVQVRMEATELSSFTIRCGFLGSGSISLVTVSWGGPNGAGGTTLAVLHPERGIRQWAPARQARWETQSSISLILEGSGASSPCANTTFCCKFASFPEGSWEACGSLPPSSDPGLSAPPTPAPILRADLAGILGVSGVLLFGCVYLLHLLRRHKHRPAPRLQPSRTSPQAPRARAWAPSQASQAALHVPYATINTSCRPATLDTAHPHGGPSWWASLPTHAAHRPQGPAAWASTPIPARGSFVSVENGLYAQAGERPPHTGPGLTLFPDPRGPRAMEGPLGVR
# Experiment: FACS, human PBMC, CD56 int. NK cells, 10ug/ml
row,Binder,gMFIr Human CD56 int. NK
1,B1,2.6
2,B2,2.08
3,B3,2.24
4,B4,1.97
5,B5,3.15
6,B6,3.6

# Target: T2, human TIGIT on cells (human, UniProt Q495A1 22-141)
# T2 construct: also called Expi293 human TIGIT over-expressing cells
# T2 sequence: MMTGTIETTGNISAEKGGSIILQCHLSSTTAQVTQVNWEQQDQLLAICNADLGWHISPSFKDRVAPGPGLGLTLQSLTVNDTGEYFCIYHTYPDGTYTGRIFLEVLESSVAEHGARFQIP
# Experiment: flow cytometry of fab; MFI on human TIGIT over-expressing Expi293 / MFI on parental Expi293
row,Binder,MFIr (OE/Par) hTIGIT
1,B7,11
2,B8,30
3,B9,16

# Target: T3, cynomolgus PVRIG on cells (cynomolgus, UniProt A0A2K5WVV8 41-322)
# T3 construct: whole, on cells; also called cPVRIG; expi cPVRIG cells
# T3 sequence: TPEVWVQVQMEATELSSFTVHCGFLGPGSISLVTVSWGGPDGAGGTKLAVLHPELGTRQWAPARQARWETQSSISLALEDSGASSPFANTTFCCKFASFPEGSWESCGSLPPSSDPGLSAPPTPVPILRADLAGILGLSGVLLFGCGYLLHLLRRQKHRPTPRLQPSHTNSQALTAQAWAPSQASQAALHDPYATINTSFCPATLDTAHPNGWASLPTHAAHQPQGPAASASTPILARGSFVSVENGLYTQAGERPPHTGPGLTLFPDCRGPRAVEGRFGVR
# Experiment: FACS, expi cPVRIG over expi parental cells, 3.3ug/ml
row,Binder,gMFIr Expi cyno OE/par
1,B10,0.77
2,B4,60.5
3,B5,106
4,B6,41.5

# Target: T1, human PVRIG on cells
# Experiment: FACS, HEK hPVRIG over HEK parental cells, 3.3ug/ml
row,Binder,gMFIr HEK OE/par
1,B1,43.7
2,B10,0.76
3,B2,47.3
4,B3,40.4
5,B4,72
6,B5,261
7,B6,45.9

# Target: T1, human PVRIG on cells
# Experiment: FACS, human PBMC, CD8+ T cells, 10ug/ml
row,Binder,gMFIr Human CD8+ T cells
1,B1,1.96
2,B2,1.71
3,B3,1.28
4,B4,1.41
5,B5,1.96
6,B6,4.09

# Target: T4, PVRIG (FACS-based competition assay of FIGS. 7 and 15) (Homo sapiens, UniProt Q6DKI7)
# T4 construct: made because the format of the assay is only described in U.S. Ser. No. 15/048,967; also called human PVRIG
# T4 sequence (receptor, looked up): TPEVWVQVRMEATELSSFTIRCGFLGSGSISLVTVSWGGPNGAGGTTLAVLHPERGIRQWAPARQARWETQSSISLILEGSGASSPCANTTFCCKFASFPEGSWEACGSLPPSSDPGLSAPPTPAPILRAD
# Experiment: FACS-based competition assay of PVRIG blocking; format and competitor not given
row,Binder,IC50 [nM]
1,B1,181
2,B10,31.6
3,B2,58.9
4,B3,821
5,B4,39.9
6,B6,37.9

# Target: T1, human PVRIG on cells
# Experiment: FACS, human PBMC, CD56 int. NK cells, 10ug/ml
# Remark: another data set of the same source
row,Binder,gMFIr Human CD56 int. NK
1,B1,2.6
2,B2,2.08
3,B3,2.24

# Target: T1, human PVRIG on cells
# Experiment: FACS, human PBMC, CD56 int. NK cells, 10ug/ml
# Remark: another data set of the same source
row,Binder,gMFIr Human CD56 int. NK
1,B4,1.97
2,B5,3.15
3,B6,3.6

# Target: T1, human PVRIG on cells
# Experiment: FACS, human PBMC, CD8+ T cells, 10ug/ml
# Remark: another data set of the same source
row,Binder,gMFIr Human CD8+ T cells
1,B1,1.96
2,B2,1.71
3,B3,1.28

# Target: T1, human PVRIG on cells
# Experiment: FACS, Jurkat cells, relative to control, 3.3ug/ml
row,Binder,gMFIr Jurkat
1,B1,5.05
2,B2,3.98
3,B3,2.79
4,B4,6.21
5,B5,23.6
6,B6,6.5

# Target: T1, human PVRIG on cells
# Experiment: FACS, human PBMC, CD8+ T cells, 10ug/ml
# Remark: another data set of the same source
row,Binder,gMFIr Human CD8+ T cells
1,B4,1.41
2,B5,1.96
3,B6,4.09

# Target: T4, PVRIG (FACS-based competition assay of …)
# Experiment: FACS-based competition assay of PVRIG blocking; format and competitor not given
# Remark: another data set of the same source
row,Binder,IC50 [nM]
1,B1,181
2,B10,31.6
3,B2,58.9
4,B3,821
5,B4,39.9
6,B6,37.9

# Target: T3, cynomolgus PVRIG on cells
# Experiment: FACS, expi cPVRIG over expi parental cells, 3.3ug/ml
# Remark: another data set of the same source
row,Binder,gMFIr Expi cyno OE/par
1,B1,46.3
2,B2,0.79
3,B3,0.82

# Target: T1, human PVRIG on cells
# Experiment: FACS, HEK hPVRIG cells (HEK OE)
row,Binder,EC50 [nM]
1,B1,1.87
2,B2,2.99
3,B3,3.67
4,B4,40.2
5,B5,1.05
6,B6,3.3

# Target: T3, cynomolgus PVRIG on cells
# Experiment: FACS, expi cPVRIG over expi parental cells, 3.3ug/ml
# Remark: another data set of the same source
row,Binder,gMFIr Expi cyno OE/par
1,B1,46.3
2,B10,0.77
3,B2,0.79
4,B3,0.82
5,B4,60.5
6,B5,106
7,B6,41.5
